Measured values taken from article PMC2816676, “DNA Binding of Centromere Protein C (CENPC) Is Stabilized by Single-Stranded RNA”.

What was measured:
[1] = target: T1, CENPC full length (Zea mays) (UniProt Q9XHE1); assay: EMSA; details: 10 mM Tris pH 7.5, 50 mM NaCl, 0.5 mM DTT, 0.5 mM EDTA, 1 mM MgCl2, 4% glycerol, 20 µl, on ice 20 min; 5% PAGE
T1 sequence: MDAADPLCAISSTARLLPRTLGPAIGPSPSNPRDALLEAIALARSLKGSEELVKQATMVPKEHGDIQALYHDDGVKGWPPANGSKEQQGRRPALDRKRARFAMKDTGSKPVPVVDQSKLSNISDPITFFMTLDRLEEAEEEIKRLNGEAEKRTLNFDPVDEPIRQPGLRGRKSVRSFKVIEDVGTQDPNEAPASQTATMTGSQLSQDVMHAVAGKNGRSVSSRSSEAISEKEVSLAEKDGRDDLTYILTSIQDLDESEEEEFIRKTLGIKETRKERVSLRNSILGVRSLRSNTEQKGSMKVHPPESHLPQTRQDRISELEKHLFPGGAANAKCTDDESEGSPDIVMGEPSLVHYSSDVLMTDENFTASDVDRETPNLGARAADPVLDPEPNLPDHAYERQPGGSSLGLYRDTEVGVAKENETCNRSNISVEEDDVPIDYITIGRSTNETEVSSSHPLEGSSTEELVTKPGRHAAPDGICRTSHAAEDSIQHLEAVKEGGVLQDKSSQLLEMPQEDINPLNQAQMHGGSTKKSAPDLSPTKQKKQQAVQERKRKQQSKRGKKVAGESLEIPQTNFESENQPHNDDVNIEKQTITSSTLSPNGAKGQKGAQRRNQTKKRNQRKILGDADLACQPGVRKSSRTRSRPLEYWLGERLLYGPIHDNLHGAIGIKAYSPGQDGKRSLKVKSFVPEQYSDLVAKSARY

[2] = target: HIV integrase DNA-binding domain (IntBD) (HIV, UniProt Q9WJL1 220-270); assay: EMSA; no RNA; 10 mM Tris pH 7.5, 50 mM NaCl, 0.5 mM DTT, 0.5 mM EDTA, 1 mM MgCl2, 4% glycerol, 20 µl, on ice 20 min; 5% PAGE; details: chain copies: 2; blunt
[3] = target: T2, CENPC Δexon 9-12 (Zea mays, UniProt Q9XHE1 1-701, del503-624); assay: EMSA; 10 mM Tris pH 7.5, 50 mM NaCl, 0.5 mM DTT, 0.5 mM EDTA, 1 mM MgCl2, 4% glycerol, 20 µl, on ice 20 min; 5% PAGE; details: protein: recombinant; tags: His (pET28a); blunt
T2 sequence: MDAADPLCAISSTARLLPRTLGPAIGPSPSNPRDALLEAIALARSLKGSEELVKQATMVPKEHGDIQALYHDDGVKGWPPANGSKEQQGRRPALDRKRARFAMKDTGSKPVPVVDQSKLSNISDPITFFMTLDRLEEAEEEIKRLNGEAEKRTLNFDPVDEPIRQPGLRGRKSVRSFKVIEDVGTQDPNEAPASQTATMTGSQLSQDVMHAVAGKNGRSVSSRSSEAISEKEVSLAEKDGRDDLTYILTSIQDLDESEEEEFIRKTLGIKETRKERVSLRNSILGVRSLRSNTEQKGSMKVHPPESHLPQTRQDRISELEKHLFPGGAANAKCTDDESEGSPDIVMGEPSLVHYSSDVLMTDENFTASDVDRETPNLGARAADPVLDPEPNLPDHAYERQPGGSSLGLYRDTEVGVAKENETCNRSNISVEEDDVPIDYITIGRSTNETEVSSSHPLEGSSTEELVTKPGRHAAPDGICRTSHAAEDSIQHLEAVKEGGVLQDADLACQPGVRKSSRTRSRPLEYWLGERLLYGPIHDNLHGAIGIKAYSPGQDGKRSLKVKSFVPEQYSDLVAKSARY

[4] = target: T3, CENPC exon 1-8 (Zea mays, UniProt Q9XHE1 1-502); assay: as above; details: protein: recombinant; tags: His (pET28a); blunt
T3 sequence: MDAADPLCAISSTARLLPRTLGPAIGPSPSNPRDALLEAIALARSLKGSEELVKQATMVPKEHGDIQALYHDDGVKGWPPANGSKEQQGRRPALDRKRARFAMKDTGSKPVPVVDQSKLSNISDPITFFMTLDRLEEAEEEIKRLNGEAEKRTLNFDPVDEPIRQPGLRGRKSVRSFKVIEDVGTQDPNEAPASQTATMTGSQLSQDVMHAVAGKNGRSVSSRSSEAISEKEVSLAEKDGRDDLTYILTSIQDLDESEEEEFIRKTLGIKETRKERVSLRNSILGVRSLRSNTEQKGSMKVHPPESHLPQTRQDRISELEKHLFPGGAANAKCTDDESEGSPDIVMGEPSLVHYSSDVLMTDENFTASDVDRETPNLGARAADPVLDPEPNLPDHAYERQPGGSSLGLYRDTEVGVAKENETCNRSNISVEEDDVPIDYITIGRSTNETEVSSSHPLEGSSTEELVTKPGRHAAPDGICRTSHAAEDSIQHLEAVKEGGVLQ

[5] = target: T4, CENPC exon 1-5.7 (Zea mays, UniProt Q9XHE1 1-399); assay: as above; details: protein: recombinant; tags: His (pET28a); blunt
T4 sequence: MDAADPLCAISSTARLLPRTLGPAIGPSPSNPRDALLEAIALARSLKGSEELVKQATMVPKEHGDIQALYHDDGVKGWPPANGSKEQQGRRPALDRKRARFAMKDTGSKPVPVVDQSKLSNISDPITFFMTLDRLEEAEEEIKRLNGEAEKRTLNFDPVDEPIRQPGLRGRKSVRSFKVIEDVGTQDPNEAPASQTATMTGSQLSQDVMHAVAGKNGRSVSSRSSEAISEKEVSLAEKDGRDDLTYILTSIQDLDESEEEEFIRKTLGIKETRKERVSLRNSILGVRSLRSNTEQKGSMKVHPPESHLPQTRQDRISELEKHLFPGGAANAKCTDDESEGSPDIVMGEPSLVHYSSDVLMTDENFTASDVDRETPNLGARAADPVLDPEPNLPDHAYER

Which binding signal [1] does the source give for CentC 156 bp DSDNA here?
Its binding signal is 95.9 % bound.

For CentC 67 bp DSDNA, which binding signal [1] is on record?
The binding signal was 85.3 % bound.

B1: CentC 44 bp DSDNA (dsDNA)
DNA 1: AATGGGTGACGTGCGGCAACGAAATTGCGCGAAACCACCCCAAA
DNA 2: TTTGGGGTGGTTTCGCGCAATTTCGTTGCCGCACGTCACCCATT
Does B1 bind [2]?
Result: binds

Does B1 bind [3]?
Result: no binding

Does B1 bind [4]?
Result: no binding

Does B1 bind [5]?
Result: no binding
